From patent US20130202615A1 (VACCINEX, published 2013)

What was measured:
[1] = target: T1, VEGF (UniProt P15692-4 27-191, limits assumed); experiment: VEGFR1 blocking ELISA: antibody pre-incubated with VEGF, added to a VEGFR1-coated plate
T1 construct: also called VEGF-A; vascular endothelial growth factor

[2] = target: T1, VEGF; experiment: competition ELISA: titrated antibody and biotinylated bevacizumab added to a VEGF-coated plate, bound biotinylated bevacizumab detected with Strep-HRP; competitor: biotinylated bevacizumab
[3] = target: T1, VEGF; experiment: Biacore SPR, VEGF immobilized on the chip, antibody as analyte, bivalent model fit
Description: (§1) Data was fit with a bivalent model for affinity determination.

[4] = target: T1, VEGF; experiment: summary table of MAb7392 characterization; affinity by Biacore, rounded form of the value in Table 2; summary Table 6, rounded value
Description: as §1

[5] = target: T1, VEGF; experiment: Biacore SPR, both antibodies tested under the same conditions
Description: as §1

[6] = target: T1, VEGF; experiment: VEGFR2 blocking ELISA: antibody pre-incubated with VEGF, added to a VEGFR2-coated plate

T1 sequence (P15692 other isoform, or with tags, fused parts or gaps limits assumed): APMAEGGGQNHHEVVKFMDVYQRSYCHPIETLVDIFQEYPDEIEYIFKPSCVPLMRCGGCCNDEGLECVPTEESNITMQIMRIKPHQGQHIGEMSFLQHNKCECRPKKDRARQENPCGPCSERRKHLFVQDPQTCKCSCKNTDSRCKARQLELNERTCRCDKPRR

- IC50 [1]: 0.08 nM
- IC50 (read off the curve) [2]: ~0.6 nM
- Kd [3]: 0.91 nM
- Kd [4]: 0.9 nM
- fold better affinity than bevacizumab [5]: ~4 fold
- IC50 [6]: 0.18 nM
B1: MAb7392 (antibody, V domains shown)
VH: QVQLVQSGAELRKPGASVKISCKASGYSLTYYGMNWVRQAPGQGLEWMGWINTFTGDSTYAQDFTGRFVFSLDTSVSTAYLQISSLKAEDMAMYYCAKYPHYYGSSHWYFDVWGQGTTVTVSS
VL: EIVLTQSPATLSVSPGERATLSCRASQSVNSNLAWYQQKPGQAPRVLIYGASTRATGIPARFSGSGSGTEFTLTISSLQSEDFAVYYCQQYSDIPWTFGQGTKLEIK
notes: also called H7230 + L7104
